Laboratory results taken from the RNAGym collection of RNA variant scans (doi:10.7554/elife.80360).

B1: Hairpin Ribozyme (parent)
chain: GUCCUCUUUCACGUGCGCGUGAAAGAGAGAAGUGAACCAGAGAAACACACGUUGUGGUAUAUUACCUGGUA

Variants of: B1
Assay: self-cleavage, relative activity (ratio to wild type); higher = more cleavage; co-transcriptional

| Variant | self-cleavage |
| --- | --- |
| A35G A44U | 0.14 |
| A35G A44G | 0.177 |
| A35G A44C | 0.211 |
| A35G C48G | 0.213 |
| G34C U52C | 1.6 |
| A35C A43U | 0.194 |
| A35C A43G | 0.155 |
| G34A A43C | 0.229 |
| G34C U67A | 0.451 |
| G34C A41U | 1.42 |
| G34U U62C | 1.23 |
| G34A G56U | 0.128 |
| G34A G56C | 0.13 |
| A35C C65U | 0.433 |
| A35C C65G | 0.387 |
| A35C C50A | 0.364 |
| G34A G42C | 0.516 |
| G34A G42A | 0.356 |
| A35G C37U | 0.302 |
| G34A C46G | 0.159 |
| G34U U67G | 0.658 |
| G34U C46A | 0.239 |
| A35G G42U | 0.304 |
| G34C A59G | 0.174 |

| Variant | self-cleavage |
| --- | --- |
| A35C G42C | 0.505 |
| A35G A39U | 0.265 |
| G34U G56U | 0.225 |
| A35G A36G | 0.749 |
| G34U U58C | 1.53 |
| G34U U58G | 1.25 |
| G34A A61C | 0.336 |
| G34A G57C | 0.247 |
| G34A G57U | 0.461 |
| A35G A71U | 0.837 |
| G34C | 1.4 |
| G34U | 1.42 |
| G34A U62G | 0.347 |
| G34A U62C | 0.38 |
| A35C C48A | 0.103 |
| G34A U55A | 0.518 |
| G34A U55G | 0.541 |
| A35C C38G | 0.112 |
| A35C C38U | 0.312 |
| G34A U70A | 1.14 |
| G34U U60A | 1.52 |
| G34A G51U | 1.28 |
| G34A C38A | 0.267 |
| G34A C38G | 0.195 |

| Variant | self-cleavage |
| --- | --- |
| G34U A36C | 1.02 |
| G34U A36G | 0.909 |
| G34U U52G | 0.896 |
| G34U U52C | 0.926 |
| G34A A49U | 0.174 |
| A35C A41G | 0.907 |
| A35C A41C | 1.13 |
| G34U G42C | 1.17 |
| G34A G68A | 0.246 |
| G34A G68C | 0.283 |
| G34A C50A | 0.312 |
| G34C G54C | 0.735 |
| G34A A64C | 0.349 |
| G34C U62C | 1.1 |
| A35C G40A | 0.208 |
| G34A A41G | 1.3 |
| G34C A44C | 0.116 |
| G34U C37A | 0.946 |
| G34A U63G | 0.157 |
| G34A U63A | 0.259 |
| G34U G51A | 1.57 |
| G34C A47G | 0.448 |
| G34C A47U | 0.465 |
| A35C A61U | 0.125 |

| Variant | self-cleavage |
| --- | --- |
| G34U U55A | 1.48 |
| G34U U55G | 1.27 |
| A35C U63C | 0.0565 |
| G34A A71G | 1.41 |
| G34C U58C | 1.4 |
| A35G A45G | 0.0332 |
| A35G A45C | 0.106 |
| G34U C50A | 1.13 |
| A35C G69A | 0.378 |
| A35C G69C | 0.126 |
| A35C A47G | 0.195 |
| A35C A47U | 0.179 |
| G34C G51U | 1.4 |
| G34U A47G | 0.444 |
| G34U A47U | 0.876 |
| G34A C66U | 0.609 |
| G34A C66G | 0.184 |
| A35G G40U | 0.161 |
| A35G G40A | 0.24 |
| G34C G69A | 0.896 |
| A35C A36C | 0.517 |
| G34C G40A | 0.576 |
| A35G G56C | 0.0996 |
| A35G A59G | 0.266 |

| Variant | self-cleavage |
| --- | --- |
| A35G A59U | 0.229 |
| G34U A45U | 0.351 |
| A35G A64G | 0.277 |
| G34C A36G | 1.24 |
| G34A U60A | 1.13 |
| G34A U60C | 1.5 |
| G34C C38A | 0.563 |
| G34C C38G | 0.683 |
| G34C C38U | 1.28 |
| G34C U70A | 1.12 |
| G34C U70G | 1.23 |
| G34C A39U | 1.02 |
| G34C A39G | 1.03 |
| G34C A61U | 1.24 |
| G34A C37G | 0.519 |
| A35C U67A | 0.301 |
| A35C U52A | 1.14 |
| A35C G54C | 0.513 |
| A35C A49C | 0.147 |
| A35C A49G | 0.341 |
| G34C G68U | 0.658 |
| A35C G56U | 0.153 |
| A35C G56A | 0.161 |
| G34A A59C | 0.148 |

| Variant | self-cleavage |
| --- | --- |
| G34A A59U | 0.203 |
| G34C A43C | 0.144 |
| G34C A43U | 0.233 |
| A35G G54U | 0.513 |
| G34U A59G | 0.23 |
| G34U A59U | 0.192 |
| G34A U58C | 1.11 |
| G34A U52C | 0.857 |
| A35C A39U | 0.445 |
| G34C C37U | 1.34 |
| G34U G68C | 0.686 |
| G34U G68U | 0.95 |
| A35G A43G | 0.082 |
| A35G A43U | 0.223 |
| G34A G54U | 0.719 |
| A35G C66G | 0.127 |
| A35G C66A | 0.156 |
| G34A C65A | 1.26 |
| G34U C65G | 1.35 |
| G34C A45U | 0.33 |
| A35C U53G | 0.403 |
| G34U U63A | 0.243 |
| A35C A45C | 0.16 |
| A35G C50U | 0.355 |

| Variant | self-cleavage |
| --- | --- |
| A35C G51A | 1.26 |
| A35G A47C | 0.312 |
| A35G A47U | 0.178 |
| A35G A47G | 0.142 |
| A35C C46U | 0.221 |
| G34C A71U | 1.27 |
| G34C U63C | 0.506 |
| G34U G40A | 0.751 |
| G34U G40C | 0.232 |
| G34A A45U | 0.0941 |
| G34A A45G | 0.435 |
| A35C C37U | 0.486 |
| A35C C37A | 0.269 |
| A35C A71U | 0.668 |
| G34U U70A | 1.43 |
| G34U U70C | 1.43 |
| G34A A44C | 0.223 |
| G34A A44G | 0.259 |
| A35G A41U | 1.28 |
| A35G A41G | 0.814 |
| G34C A64C | 0.578 |
| G34A G40C | 0.174 |
| G34U A39C | 0.857 |
